B1: xPSM1.A9-1 (ssRNA)
RNA: GGGAGGACGAUGCGGACCGAAAAAGACCUGACUUCUAUACUAAGUCUACGUUCCCAGACGACUCG
modifications: 2'-F all pyrimidines; purines 2'-OH
B2: xPSM1.A9-3 (ssRNA)
RNA: GGGAGGACGAUGCGGACCGAAAAAGACCUGACUUCUAUACUAAGUCUACGUUCCC
modifications: 2'-F all pyrimidines; purines 2'-OH
B3: xPSM-A10 (62-A10) (ssRNA)
RNA: GGGAGGACGAUGCGGAUCAGCCAUGUUUACGUCACUCCUUGUCAAUCCUCAUCGGCAGACGACUCGCCCGA
modifications: 2'-F all pyrimidines; purines 2'-OH
B4: xPSM1.A10-4 (ssRNA)
RNA: GGGAGGACGAUGCGGAUCAGCCAUGUUUACGUCACUCCUUGUCAAUCCUCA
modifications: 2'-F all pyrimidines; purines 2'-OH
B5: xPSM1.A10-1 (ssRNA)
RNA: GGGAGGACGAUGCGGAUCAGCCAUGUUUACGUCACUCCUUGUCAAUCCUCAUCGGCAGACGACUCG
modifications: 2'-F all pyrimidines; purines 2'-OH
B6: xPSM-A9 (ssRNA)
RNA: GGGAGGACGAUGCGGACCGAAAAAGACCUGACUUCUAUACUAAGUCUACGUUCCCAGACGACUCGCCCGA
modifications: 2'-F all pyrimidines; purines 2'-OH
B7: xPSM1.A9-2 (ssRNA)
RNA: GGGAGGACGAUGCGGACCGAAAAAGACCUGACUUCUAUACUAAGUCUACGUUCCCAGACG
modifications: 2'-F all pyrimidines; purines 2'-OH
B8: xPSM1.A10-3 (ssRNA)
RNA: GGGAGGACGAUGCGGAUCAGCCAUGUUUACGUCACUCCUUGUCAAUCCUCAUCGGC
modifications: 2'-F all pyrimidines; purines 2'-OH

In general, IC50 refers to the concentration at which inhibition is half-maximal. For orientation: Ki means a measure of affinity in units of concentration, obtained from inhibition or displacement.

For the first data set, the target named is T1, xPSM (extracellular portion of PSMA) (Homo sapiens (LNCaP cDNA), UniProt Q04609 Q04609:44-750). In words: inhibition; NAALADase assay, 8 nM substrate, 37 C. The following applies: tags: S-tag fusion released by enterokinase; baculovirus Sf-9 secreted. The method, then: (§1) NAAG hydrolysis was performed essentially as described in Robinson et al. (1987) J Biol Chem. 262:14498-506. LNCaP cell extracts were prepared by sonication in the presence of 50 mM Tris, pH 7.4, 0.5% Triton-X-100. Cell lysate or purified xPSM was incubated in the presence of the radiolabeled substrate N-acetyl-L-aspartyl-L-[3,4-³H]glutamate (NEN Life Science Products, Boston, Mass.) at 37° C. for 10-15 minutes. The reaction was stopped with an equal volume of ice-cold 100 mM sodium phosphate, 2 mM EDTA. Products were separated from intact substrate using anion exchange chromatography and quantitated by scintillation counting. […] In all cases less than 20% of substrate was cleaved.
T1 sequence (Q04609 44-750, one chain of several): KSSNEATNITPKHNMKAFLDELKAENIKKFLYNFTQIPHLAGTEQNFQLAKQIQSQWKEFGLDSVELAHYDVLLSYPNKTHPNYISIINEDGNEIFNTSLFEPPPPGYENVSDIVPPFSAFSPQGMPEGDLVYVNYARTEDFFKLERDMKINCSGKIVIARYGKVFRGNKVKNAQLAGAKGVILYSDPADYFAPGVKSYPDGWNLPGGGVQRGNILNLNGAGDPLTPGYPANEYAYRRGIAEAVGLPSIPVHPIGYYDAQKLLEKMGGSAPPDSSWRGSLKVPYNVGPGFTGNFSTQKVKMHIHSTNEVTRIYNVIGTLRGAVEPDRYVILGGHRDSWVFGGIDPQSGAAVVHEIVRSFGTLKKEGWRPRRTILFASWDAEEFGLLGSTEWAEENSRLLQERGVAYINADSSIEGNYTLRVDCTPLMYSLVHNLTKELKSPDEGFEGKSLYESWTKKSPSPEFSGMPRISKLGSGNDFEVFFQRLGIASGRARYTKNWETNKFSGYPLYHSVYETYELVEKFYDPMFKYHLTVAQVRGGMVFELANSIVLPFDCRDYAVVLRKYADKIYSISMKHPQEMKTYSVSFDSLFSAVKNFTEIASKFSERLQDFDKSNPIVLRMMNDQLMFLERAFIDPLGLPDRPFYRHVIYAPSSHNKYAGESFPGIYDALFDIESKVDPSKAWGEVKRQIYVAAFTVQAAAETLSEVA
As to B1, the IC50 stood at 8 nM.

As to GGGAGGACGAUGCGGAUCAGCCAUGUUUACGUCACUCCUUG (ssRNA, 2'-F all pyrimidines; purines 2'-OH) [xPSM1.A10-6], the IC50 was more than 700 nM.

In the case of GGGAGGACGAUGCGGAUCAGCCAUGUUUACGUCACUCCUUGUCAAU (ssRNA, 2'-F all pyrimidines; purines 2'-OH) [xPSM1.A10-5], the IC50 is more than 700 nM.

Turning to B2, the IC50 is more than 300 nM.

Take B3: the half-inhibitory concentration (IC50) amounted to 80 nM.

On to B4, for which the IC50 was more than 700 nM.

Take B5: the IC50 turned out to be 40 nM.

Turning to GGGAGGACGAUGCGGACCGAAAAAGACCUGACUUCUAUACUAAGU (ssRNA, 2'-F all pyrimidines; purines 2'-OH) [xPSM1.A9-5], the IC50 was more than 300 nM.

For the molecule B6, the IC50 is 5 nM.

For the molecule GGGAGGACGAUGCGGACCGAAAAAGACCUGACUUCUAUACUAAGUCUACG (ssRNA, 2'-F all pyrimidines; purines 2'-OH) [xPSM1.A9-4], the IC50 is more than 300 nM.

For B7, the IC50 was 300 nM.

On to B8, for which the IC50 stood at 50 nM.

For the molecule GGGAGGACGAUGCGGACCGAAAAAGACCUGACUUCUAUAC (ssRNA, 2'-F all pyrimidines; purines 2'-OH) [xPSM1.A9-6], the IC50 was more than 300 nM.

Another data set concerns the target T1, xPSM (extracellular portion of PSMA). Nature of the data set: inhibition; competitive NAALADase inhibition, 37 C. The following applies: tags: S-tag fusion released by enterokinase; baculovirus Sf-9 secreted. The method, then:
as §1
Take B3: the Ki amounted to 11.9 nM.

A further data set shares this target. In words: inhibition; competitive NAALADase inhibition, +/-7.8 nM, 37 C. The following applies: tags: S-tag fusion released by enterokinase; baculovirus Sf-9 secreted. The method, then:
as §1
With B8, the Ki was 20.5 nM.

A further data set shares this target. In words: inhibition; noncompetitive NAALADase inhibition, 37 C. The following applies: tags: S-tag fusion released by enterokinase; baculovirus Sf-9 secreted. The method, then:
as §1
Take B6: the Ki came to 1.1 nM.
